Reference: publication PMC7565527, “Cryo-EM Structure of Heterologous Protein Complex Loaded Thermotoga Maritima Encapsulin Capsid” (Biomolecules, 2020)

Target: the molecule itself
Experiment: cryo-EM structure; Encap/IDM complex coexpressed in insect cells, purified by Ni-NTA and Superdex 200; icosahedral reconstruction of the encapsulin shell at 2.87 Å, C1 reconstruction at 4.29 Å

B1: Thermotoga maritima encapsulin capsid protein, C-terminus His-tagged (natural protein)
chain: MEFLKRSFAPLTEKQWQEIDNRAREIFKTQLYGRKFVDVEGPYGWEYAAHPLGEVEVLSDENEVVKWGLRKSLPLIELRATFTLDLWELDNLERGKPNVDLSSLEETVRKVAEFEDEVIFRGCEKSGVKGLLSFEERKIECGSTPKDLLEAIVRALSIFSKDGIEGPYTLVINTDRWINFLKEEAGHYPLEKRVEECLRGGKIITTPRIEDALVVSERGGDFKLILGQDLSIGYEDREKDAVRLFITETFTFQVVNPEALILLKF
notes: T. maritima encapsulin capsid protein; gene amplified from pET14-GFP30-Encap (Addgene #86406); model built from PDB 3DKT; Assembles into an icosahedral shell with 12 fivefold pores; its symmetry expansion ('the other expanded 59 sets') implies 60; also called encapsulin shell; source: insect cells (baculovirus, pFastBac1), coexpressed with cargo, purified (Ni-NTA, Superdex 200); not shown: His …
B1: binds.
